For one assay, the target named is PCSK9 protein (UniProt Q8NBP7). Kind of assay: PCSK9-LDLR in vitro binding assay kit, OD450/540; peptide 50 µM, PCSK9 75 ng/mL; inhibition of PCSK9 binding to LDLR.
Assay [1] deals with bovine trypsin (bovine), P00760. Kind of assay: cell-based or functional assay.
Sequence of bovine trypsin (bovine), P00760 (P00760 24-246): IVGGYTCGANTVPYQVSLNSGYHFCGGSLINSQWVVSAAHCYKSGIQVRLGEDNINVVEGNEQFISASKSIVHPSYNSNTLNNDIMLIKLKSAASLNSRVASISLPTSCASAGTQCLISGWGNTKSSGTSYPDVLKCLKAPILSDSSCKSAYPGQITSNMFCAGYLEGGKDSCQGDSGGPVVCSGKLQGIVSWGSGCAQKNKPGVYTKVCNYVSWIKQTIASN

B1: PCSK9_13 (peptide)
peptide: GTNEALDNNCGRATKSIPPICFTVFTS
For B1, the Inhibitory rate (%) in the assay with PCSK9 protein turned out to be 15.8%.

B2: BT1 (peptide)
peptide: GRCTKSIPPICFPD
modifications: not checked
In the case of B2, in assay [1], the residual trypsin activity at 0.0000098 µM BT1 was found to be 102%, the residual trypsin activity at 0.000098 µM BT1 worked out at 102%, the residual trypsin activity at 0.00098 µM BT1 was determined as 101% and the residual trypsin activity at 0.02439 µM BT1 turned out to be 69.6%. Also, in assay [1], the residual trypsin activity at 0.0488 µM BT1 is 24.1%, the residual trypsin activity at 0.098 µM BT1 worked out at 3.3%, the residual trypsin activity at 0.98 µM BT1 was 0% and the residual trypsin activity at 9.76 µM BT1 was 0%.
